# Measured values as given in patent US20130252884A1 (Novo Nordisk, published 2013).
# Biological target: human beta-Klotho (human, UniProt Q86Z14 1-1044)
# Assay: cell-based or functional assay
row,Binder,pERK-HEK293-Beta-klotho without HSA [EC50 (nM)] Median Value [nM]
1,"[-1A, 71C, 121Q, 166F, 167G, 168L, 171L, 172E, 173A, 174V, des179-181] FGF-21 (ligand) AHPIPDSSPLLQFGGQVRQRYLYTDDAQQTEAHLEIREDGTVGGAADQSPESLLQLKALKPGVIQILGVKTCRFLCQRPDGALYGSLHFDPEACSFRELLLEDGYNVYQSEAHGLPLHLPGQKSPHRDPAPRGPARFLPLPGLPPALPEPPGILAPQPPDVGSSDPFGLVGLEAVRSPS",12.5
2,"[-1A, S71C, L166F, S167G, M168L, P171L, S172E, Q173A, G174V, Y179F, A180E] FGF-21 (ligand) AHPIPDSSPLLQFGGQVRQRYLYTDDAQQTEAHLEIREDGTVGGAADQSPESLLQLKALKPGVIQILGVKTCRFLCQRPDGALYGSLHFDPEACSFRELLLEDGYNVYQSEAHGLPLHLPGNKSPHRDPAPRGPARFLPLPGLPPALPEPPGILAPQPPDVGSSDPFGLVGLEAVRSPSFES",0.47
3,"[-1A, S71C, N121Q, L166F, S167G, M168L, G174V, Y179F, A180E] FGF-21 (ligand) AHPIPDSSPLLQFGGQVRQRYLYTDDAQQTEAHLEIREDGTVGGAADQSPESLLQLKALKPGVIQILGVKTCRFLCQRPDGALYGSLHFDPEACSFRELLLEDGYNVYQSEAHGLPLHLPGQKSPHRDPAPRGPARFLPLPGLPPALPEPPGILAPQPPDVGSSDPFGLVGPSQVRSPSFES",0.71
4,"[-1A, S71C, N121Q, L166F, M168L, Q173A, G174V, Y179F] FGF21 (ligand) AHPIPDSSPLLQFGGQVRQRYLYTDDAQQTEAHLEIREDGTVGGAADQSPESLLQLKALKPGVIQILGVKTCRFLCQRPDGALYGSLHFDPEACSFRELLLEDGYNVYQSEAHGLPLHLPGQKSPHRDPAPRGPARFLPLPGLPPALPEPPGILAPQPPDVGSSDPFSLVGPSAVRSPSFAS",0.98
5,"[-1A, S71C, L166F, S167G, M168L, G174V, Y179F, A180E] FGF-21 (ligand) AHPIPDSSPLLQFGGQVRQRYLYTDDAQQTEAHLEIREDGTVGGAADQSPESLLQLKALKPGVIQILGVKTCRFLCQRPDGALYGSLHFDPEACSFRELLLEDGYNVYQSEAHGLPLHLPGNKSPHRDPAPRGPARFLPLPGLPPALPEPPGILAPQPPDVGSSDPFGLVGPSQVRSPSFES",0.64
6,"[-1A, S71C, N121Q, L166F, S167G, M168L, G174V, Y179F, A180E, des181] FGF-21 (ligand) AHPIPDSSPLLQFGGQVRQRYLYTDDAQQTEAHLEIREDGTVGGAADQSPESLLQLKALKPGVIQILGVKTCRFLCQRPDGALYGSLHFDPEACSFRELLLEDGYNVYQSEAHGLPLHLPGQKSPHRDPAPRGPARFLPLPGLPPALPEPPGILAPQPPDVGSSDPFGLVGPSQVRSPSFE",0.78
7,"[-1A, S71C, L166F, S167G, M168L, P171L, S172E, Q173A, G174V, Y179F, A180E, des181] FGF-21 (ligand) AHPIPDSSPLLQFGGQVRQRYLYTDDAQQTEAHLEIREDGTVGGAADQSPESLLQLKALKPGVIQILGVKTCRFLCQRPDGALYGSLHFDPEACSFRELLLEDGYNVYQSEAHGLPLHLPGNKSPHRDPAPRGPARFLPLPGLPPALPEPPGILAPQPPDVGSSDPFGLVGLEAVRSPSFE",0.77
8,"[-1A, 121Q, 166F, 167G, 168L, 171L, 172E, 173A, 174V, 179F, 180E, des181] FGF-21 (ligand) AHPIPDSSPLLQFGGQVRQRYLYTDDAQQTEAHLEIREDGTVGGAADQSPESLLQLKALKPGVIQILGVKTSRFLCQRPDGALYGSLHFDPEACSFRELLLEDGYNVYQSEAHGLPLHLPGQKSPHRDPAPRGPARFLPLPGLPPALPEPPGILAPQPPDVGSSDPFGLVGLEAVRSPSFE",0.7
9,"[-1A, S71C, L166F, S167G, M168L, G174V, Y179F, A180E, des181] FGF-21 (ligand) AHPIPDSSPLLQFGGQVRQRYLYTDDAQQTEAHLEIREDGTVGGAADQSPESLLQLKALKPGVIQILGVKTCRFLCQRPDGALYGSLHFDPEACSFRELLLEDGYNVYQSEAHGLPLHLPGNKSPHRDPAPRGPARFLPLPGLPPALPEPPGILAPQPPDVGSSDPFGLVGPSQVRSPSFE",0.71
10,"[-1A, S71C, N121Q, L166F, S167G, M168L, P171L, S172E, Q173A, G174V, Y179F, A180E, des181] FGF-21 (ligand) AHPIPDSSPLLQFGGQVRQRYLYTDDAQQTEAHLEIREDGTVGGAADQSPESLLQLKALKPGVIQILGVKTCRFLCQRPDGALYGSLHFDPEACSFRELLLEDGYNVYQSEAHGLPLHLPGQKSPHRDPAPRGPARFLPLPGLPPALPEPPGILAPQPPDVGSSDPFGLVGLEAVRSPSFE",0.63

# More lines, now with the values ahead:
row,pERK-HEK293-Beta-klotho without HSA [EC50 (nM)] Median Value [nM],Binder
1,23.8,"Derivative 101: Analog 10 with modifying moiety III on the sulphur of Cys 71 (ligand, Cys 71: {2-[2-(2-{2-[2-(2-{2-[(S)-4-Carboxy-4-(17-carboxyheptadecanoylamino)butyrylamino]ethoxy}ethoxy)acetylamino]ethoxy}ethoxy)acetylamino]ethylcarbamoyl}methyl (modifying moiety III) on the sulphur atom) AHPIPDSSPLLQFGGQVRQRYLYTDDAQQTEAHLEIREDGTVGGAADQSPESLLQLKALKPGVIQILGVKTCRFLCQRPDGALYGSLHFDPEACSFRELLLEDGYNVYQSEAHGLPLHLPGQKSPHRDPAPRGPARFLPLPGLPPALPEPPGILAPQPPDVGSSDPFGLVGLEAVRSPS"
2,0.76,"[-1A, S71C, N121Q, L166F, S167G, M168L, P171L, S172E, Q173A, G174V, Y179F, A180E] FGF-21 (ligand) AHPIPDSSPLLQFGGQVRQRYLYTDDAQQTEAHLEIREDGTVGGAADQSPESLLQLKALKPGVIQILGVKTCRFLCQRPDGALYGSLHFDPEACSFRELLLEDGYNVYQSEAHGLPLHLPGQKSPHRDPAPRGPARFLPLPGLPPALPEPPGILAPQPPDVGSSDPFGLVGLEAVRSPSFES"
3,1.01,"Derivative 24: Analog 8 with modifying moiety III on the sulphur of Cys 71 (ligand, Cys 71: {2-[2-(2-{2-[2-(2-{2-[(S)-4-Carboxy-4-(17-carboxyheptadecanoylamino)butyrylamino]ethoxy}ethoxy)acetylamino]ethoxy}ethoxy)acetylamino]ethylcarbamoyl}methyl (modifying moiety III) on the sulphur atom) AHPIPDSSPLLQFGGQVRQRYLYTDDAQQTEAHLEIREDGTVGGAADQSPESLLQLKALKPGVIQILGVKTCRFLCQRPDGALYGSLHFDPEACSFRELLLEDGYNVYQSEAHGLPLHLPGQKSPHRDPAPRGPARFLPLPGLPPALPEPPGILAPQPPDVGSSDPFGLVGLEAVRSPSFES"
4,1.6,Met-FGF21 (mature human FGF21 with an added N-terminal methionine) (ligand) MHPIPDSSPLLQFGGQVRQRYLYTDDAQQTEAHLEIREDGTVGGAADQSPESLLQLKALKPGVIQILGVKTSRFLCQRPDGALYGSLHFDPEACSFRELLLEDGYNVYQSEAHGLPLHLPGNKSPHRDPAPRGPARFLPLPGLPPALPEPPGILAPQPPDVGSSDPLSMVGPSQGRSPSYAS
5,0.47,"Derivative 18: Analog 2 with modifying moiety III on the sulphur of Cys 71 (ligand, Cys 71: {2-[2-(2-{2-[2-(2-{2-[(S)-4-Carboxy-4-(17-carboxyheptadecanoylamino)butyrylamino]ethoxy}ethoxy)acetylamino]ethoxy}ethoxy)acetylamino]ethylcarbamoyl}methyl (modifying moiety III) on the sulphur atom) AHPIPDSSPLLQFGGQVRQRYLYTDDAQQTEAHLEIREDGTVGGAADQSPESLLQLKALKPGVIQILGVKTCRFLCQRPDGALYGSLHFDPEACSFRELLLEDGYNVYQSEAHGLPLHLPGNKSPHRDPAPRGPARFLPLPGLPPALPEPPGILAPQPPDVGSSDPFGLVGPSQVRSPSFES"
6,1.4,"Derivative 102: Analog 11 with modifying moiety III on the sulphur of Cys 71 (ligand, Cys 71: {2-[2-(2-{2-[2-(2-{2-[(S)-4-Carboxy-4-(17-carboxyheptadecanoylamino)butyrylamino]ethoxy}ethoxy)acetylamino]ethoxy}ethoxy)acetylamino]ethylcarbamoyl}methyl (modifying moiety III) on the sulphur atom) AHPIPDSSPLLQFGGQVRQRYLYTDDAQQTEAHLEIREDGTVGGAADQSPESLLQLKALKPGVIQILGVKTCRFLCQRPDGALYGSLHFDPEACSFRELLLEDGYNVYQSEAHGLPLHLPGQKSPHRDPAPRGPARFLPLPGLPPALPEPPGILAPQPPDVGSSDPFSLVGPSAVRSPSFAS"
7,0.98,"Derivative 17: Analog 1 with modifying moiety III on the sulphur of Cys 71 (ligand, Cys 71: {2-[2-(2-{2-[2-(2-{2-[(S)-4-Carboxy-4-(17-carboxyheptadecanoylamino)butyrylamino]ethoxy}ethoxy)acetylamino]ethoxy}ethoxy)acetylamino]ethylcarbamoyl}methyl (modifying moiety III) on the sulphur atom) AHPIPDSSPLLQFGGQVRQRYLYTDDAQQTEAHLEIREDGTVGGAADQSPESLLQLKALKPGVIQILGVKTCRFLCQRPDGALYGSLHFDPEACSFRELLLEDGYNVYQSEAHGLPLHLPGNKSPHRDPAPRGPARFLPLPGLPPALPEPPGILAPQPPDVGSSDPFGLVGPSQVRSPSFE"
8,1.07,"Derivative 21: Analog 5 with modifying moiety III on the sulphur of Cys 71 (ligand, Cys 71: {2-[2-(2-{2-[2-(2-{2-[(S)-4-Carboxy-4-(17-carboxyheptadecanoylamino)butyrylamino]ethoxy}ethoxy)acetylamino]ethoxy}ethoxy)acetylamino]ethylcarbamoyl}methyl (modifying moiety III) on the sulphur atom) AHPIPDSSPLLQFGGQVRQRYLYTDDAQQTEAHLEIREDGTVGGAADQSPESLLQLKALKPGVIQILGVKTCRFLCQRPDGALYGSLHFDPEACSFRELLLEDGYNVYQSEAHGLPLHLPGQKSPHRDPAPRGPARFLPLPGLPPALPEPPGILAPQPPDVGSSDPFGLVGPSQVRSPSFE"
9,1.46,"Derivative 31: Analog 7 with modifying moiety IV on the sulphur of Cys 71 (ligand, Cys 71: {2-[2-(2-{2-[2-(2-{2-[(S)-4-Carboxy-4-(19-carboxynonadecanoylamino)butyrylamino]ethoxy}ethoxy)acetylamino]ethoxy}ethoxy)acetylamino]ethylcarbamoyl}methyl (modifying moiety IV) on the sulphur atom) AHPIPDSSPLLQFGGQVRQRYLYTDDAQQTEAHLEIREDGTVGGAADQSPESLLQLKALKPGVIQILGVKTCRFLCQRPDGALYGSLHFDPEACSFRELLLEDGYNVYQSEAHGLPLHLPGQKSPHRDPAPRGPARFLPLPGLPPALPEPPGILAPQPPDVGSSDPFGLVGLEAVRSPSFE"
10,0.48,"Derivative 19: Analog 3 with modifying moiety III on the sulphur of Cys 71 (ligand, Cys 71: {2-[2-(2-{2-[2-(2-{2-[(S)-4-Carboxy-4-(17-carboxyheptadecanoylamino)butyrylamino]ethoxy}ethoxy)acetylamino]ethoxy}ethoxy)acetylamino]ethylcarbamoyl}methyl (modifying moiety III) on the sulphur atom) AHPIPDSSPLLQFGGQVRQRYLYTDDAQQTEAHLEIREDGTVGGAADQSPESLLQLKALKPGVIQILGVKTCRFLCQRPDGALYGSLHFDPEACSFRELLLEDGYNVYQSEAHGLPLHLPGNKSPHRDPAPRGPARFLPLPGLPPALPEPPGILAPQPPDVGSSDPFGLVGLEAVRSPSFE"
11,0.64,"Derivative 23: Analog 7 with modifying moiety III on the sulphur of Cys 71 (ligand, Cys 71: {2-[2-(2-{2-[2-(2-{2-[(S)-4-Carboxy-4-(17-carboxyheptadecanoylamino)butyrylamino]ethoxy}ethoxy)acetylamino]ethoxy}ethoxy)acetylamino]ethylcarbamoyl}methyl (modifying moiety III) on the sulphur atom) AHPIPDSSPLLQFGGQVRQRYLYTDDAQQTEAHLEIREDGTVGGAADQSPESLLQLKALKPGVIQILGVKTCRFLCQRPDGALYGSLHFDPEACSFRELLLEDGYNVYQSEAHGLPLHLPGQKSPHRDPAPRGPARFLPLPGLPPALPEPPGILAPQPPDVGSSDPFGLVGLEAVRSPSFE"
